From patent US20130266516, “LAR Protein-Specific Ligand” (COMMISSARIAT A L'ENERGIE ATOMIQUE ET AUX ENERGIES, published 2013) come the findings set out here.

Holding throughout (conditions): label: radiolabel, biotin or Alexa Fluor 647/680
Data set [1] has as its target T1, LAR protein (PTPRF, receptor-type protein tyrosine phosphatase F), endogenous on human cell lines (Homo sapiens, UniProt P10586 SEQ:30-1907). Put plainly: HEK293-KDR whole cells, Scatchard; Cmax 119 pM. Here is the method:
(§1) The binding curves were obtained for each cell type. From the specific binding, and using the Scatchard representation, the Kd and the Cmax were calculated for each cell type. Knowing the Cmax and the number of cells during the binding, the inventors were able to deduce therefrom an approximate number of targets per cell.

For data set [2], the target named is T1, LAR protein (PTPRF, receptor-type …). In words: MDA-MB-231 whole cells, Scatchard; Cmax 131 pM. Here is the method:
as §1

For data set [3] the target is unchanged. In words: MCF-7 whole cells, Scatchard analysis of radioligand-type cell binding; Cmax 251 pM. Here is the method:
as §1

For data set [4] the target is unchanged. Put plainly: A-431 whole cells, Scatchard; Cmax 455 pM. As for the experimental part: as §1
Data set [5] shares this target. Put plainly: HEK293 whole cells, Scatchard; Cmax 264 pM. Here is the method: as §1

T1 sequence (P10586 30-1907): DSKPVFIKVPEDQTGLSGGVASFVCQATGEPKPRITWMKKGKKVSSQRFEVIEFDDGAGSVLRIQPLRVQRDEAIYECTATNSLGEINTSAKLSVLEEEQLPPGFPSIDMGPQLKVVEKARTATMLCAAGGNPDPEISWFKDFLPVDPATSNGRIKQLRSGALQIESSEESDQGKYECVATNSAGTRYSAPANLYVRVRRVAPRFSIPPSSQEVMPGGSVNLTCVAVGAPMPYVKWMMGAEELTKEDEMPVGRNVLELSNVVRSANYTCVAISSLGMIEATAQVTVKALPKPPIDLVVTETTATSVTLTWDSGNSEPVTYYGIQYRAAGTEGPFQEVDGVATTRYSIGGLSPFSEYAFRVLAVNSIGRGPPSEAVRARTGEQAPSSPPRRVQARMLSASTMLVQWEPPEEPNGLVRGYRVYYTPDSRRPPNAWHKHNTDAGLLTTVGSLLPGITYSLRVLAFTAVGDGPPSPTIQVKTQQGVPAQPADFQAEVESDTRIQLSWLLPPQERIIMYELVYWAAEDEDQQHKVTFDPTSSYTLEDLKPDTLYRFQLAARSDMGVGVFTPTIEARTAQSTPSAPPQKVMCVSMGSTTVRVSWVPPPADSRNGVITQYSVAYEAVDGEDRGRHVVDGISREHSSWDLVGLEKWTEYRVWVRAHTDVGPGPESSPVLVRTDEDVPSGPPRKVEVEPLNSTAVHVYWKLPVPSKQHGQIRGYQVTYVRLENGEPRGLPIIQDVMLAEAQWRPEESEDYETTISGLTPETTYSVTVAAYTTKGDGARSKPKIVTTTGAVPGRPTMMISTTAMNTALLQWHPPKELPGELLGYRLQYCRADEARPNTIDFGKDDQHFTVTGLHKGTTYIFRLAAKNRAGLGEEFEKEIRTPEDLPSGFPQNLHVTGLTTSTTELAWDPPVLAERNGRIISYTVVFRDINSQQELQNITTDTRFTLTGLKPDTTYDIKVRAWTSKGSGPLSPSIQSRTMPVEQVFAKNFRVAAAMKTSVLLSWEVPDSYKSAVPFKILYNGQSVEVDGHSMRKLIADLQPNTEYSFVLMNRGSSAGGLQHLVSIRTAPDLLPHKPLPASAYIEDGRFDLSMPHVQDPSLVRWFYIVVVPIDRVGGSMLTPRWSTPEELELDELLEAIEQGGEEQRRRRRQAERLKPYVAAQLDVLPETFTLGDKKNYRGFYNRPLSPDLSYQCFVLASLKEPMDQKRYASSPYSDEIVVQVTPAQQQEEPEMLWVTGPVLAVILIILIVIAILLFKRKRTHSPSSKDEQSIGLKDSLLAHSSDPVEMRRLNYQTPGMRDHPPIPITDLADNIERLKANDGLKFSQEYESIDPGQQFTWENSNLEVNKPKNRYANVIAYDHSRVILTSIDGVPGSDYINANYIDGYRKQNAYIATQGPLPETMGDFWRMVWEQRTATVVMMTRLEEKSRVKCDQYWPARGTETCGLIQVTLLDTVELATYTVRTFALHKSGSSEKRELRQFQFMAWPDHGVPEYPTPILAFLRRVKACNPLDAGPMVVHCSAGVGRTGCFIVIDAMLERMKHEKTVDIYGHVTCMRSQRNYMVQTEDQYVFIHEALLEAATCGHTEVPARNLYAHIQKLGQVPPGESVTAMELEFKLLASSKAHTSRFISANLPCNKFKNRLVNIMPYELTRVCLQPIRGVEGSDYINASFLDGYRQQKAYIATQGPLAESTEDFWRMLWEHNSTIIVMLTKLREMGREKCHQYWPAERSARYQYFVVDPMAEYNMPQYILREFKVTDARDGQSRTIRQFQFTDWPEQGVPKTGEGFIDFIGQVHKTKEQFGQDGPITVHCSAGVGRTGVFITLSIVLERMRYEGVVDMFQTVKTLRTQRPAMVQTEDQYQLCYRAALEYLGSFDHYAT

B1: V8 aptamer (ssRNA)
RNA: GGGAGAUGCUCUGUCAGACUACGACUGUCCCAGUAUGACGCGACUGCUUAGGUGGGAUGUUUCCCAUGCCUCGACUGGCUGGCAGGUUGAUGACAAG
modifications: 2'-F on all pyrimidines, 2'-OH purines
Take B1: the Kd (usually the concentration at which binding is half-saturated) amounted to 5.3 nM in data set [1]; 3 nM in data set [2]; 1.6 nM in data set [3]; 5.6 nM in data set [4]; 3.8 nM in data set [5].
